Assay results reported in patent US20220290165.
Where two headings read alike, the source gives them in different places.

B1: Trichoderma reesei gap1 (protein)
chain: TVQSNWGGAILEGSGFTAASATVNVPRGGGGSNAAGSAWVGIDGASCQTAILQTGFDWYGDGTYDAWYEWYPEFAADFSGIDIRQGDQIAMSVVATSLTGGSATLENLSTGQKVTQNFNRVTAGSLCETSAEFIIEDFEECNSNGSNCQPVPFASFSPAITFSSATATRSGRSVSLSGAEITEVIVNNQDLTRCSVSGSSTLTCSYV
B2: Trichoderma reesei pep5 (protein)
chain: MKFHAAALTLACLASSASAGVAQPRADEVESAEQGKTFSLEQIPNERYKGNIPAAYISALAKYSPTIPDKIKHAIEINPDLHRKFSKLINAGNMTGTAVASPPPGADAEYVLPVKIGTPPQTLPLNLDTGSSDLWVISTDTYPPQVQGQTRYNVSASTTAQRLIGESWVIRYGDGSSANGIVYKDRVQIGNTFFNQQAVESAVNISNEISDDSFSSGLLGAASSAANTVRPDRQTTYLENIKSQLARPVFTANLKKGKPGNYNFGYINGSEYIGPIQYAAINPSSPLWEVSVSGYRVGSNDTKYVPRVWNAIADTGTTLLLVPNDIVSAYYAQVKGSTFSNDVGMMLVPCAATLPDFAFGLGNYRGVIPGSYINYGRMNKTYCYGGIQSSEDAPFAVLGDIALKAQFVVFDMGNKVVGFANKNTNV
B3: Trichoderma reesei pep3 (protein)
chain: MEAILQAQAKFRLDRGLQKITAVRNKNYKRHGPKSYVYLLNRFGFEPTKPGPYFQQHRIHQRGLAHPDFKAAVGGRVTRQKVLAKKVKEDGTVDAGGSKTGEVDAEDQQNDSEYLCEVTIGTPGQKLMLDFDTGSSDLWVFSTELSKHLQENHAIFDPKKSSTFKPLKDQTWQISYGDGSSASGTCGSDTVTLGGLSIKNQTIELASKLAPQFAQGTGDGLLGLAWPQINTVQTDGRPTPANTPVANMIQQDDIPSDAQLFTAAFYSERDENAESFYTFGYIDQDLVSASGQEIAWTDVDNSQGFWMFPSTKTTINGKDISQEGNTAIADTGTTLALVSDEVCEALYKAIPGAKYDDNQQGYVFPINTDASSLPELKVSVGNTQFVIQPEDLAFAPADDSNWYGGVQSRGSNPFDILGDVFLKSVYAIFDQGNQRFGAVPKIQAKQNLQPPQ
B4: Trichoderma reesei pep2 (protein)
chain: MQPSFGSFLVTVLSASMAAGSVIPSTNANPGSFEIKRSANKAFTGRNGPLALARTYAKYGVEVPKTLVDAIQLVKSIQLAKRDSATVTATPDHDDIEYLVPVKIGTPPQTLNLDFDTGSSDLWVFSSDVDPTSSQGHDIYTPSKSTSSKKLEGASWNITYGDRSSSSGDVYHDIVSVGNLTVKSQAVESARNVSAQFTQGNNDGLVGLAFSSINTVKPTPQKTWYDNIVGSLDSPVFVADLRHDTPGSYHFGSIPSEASKAFYAPIDNSKGFWQFSTSSNISGQFNAVADTGTTLLLASDDLVKAYYAKVQGARVNVFLGGYVFNCTTQLPDFTFTVGEGNITVPGTLINYSEAGNGQCFGGIQPSGGLPFAIFGDIALKAAYVIFDSGNKQVGWAQKK

Columns and labels:
[1] = biological target: soybean trypsin inhibitor (SBTI) (UniProt P01070)
Sequence of UniProt P01070 (P01070 25-205): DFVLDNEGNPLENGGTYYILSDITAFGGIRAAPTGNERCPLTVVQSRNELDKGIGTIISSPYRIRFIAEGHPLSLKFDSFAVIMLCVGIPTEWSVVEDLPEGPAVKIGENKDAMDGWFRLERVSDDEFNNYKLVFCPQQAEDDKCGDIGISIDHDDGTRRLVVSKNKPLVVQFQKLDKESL

pepstatin A [2] = system: pepstatin A
pepstatin A [3] = biological target: pepstatin A; remark: listed apart in the source

Row | Molecule | casein digestion by the SIP purified fractions at pH 5.5 (pepstatin A [3]) | also measured
1 | Trichoderma reesei slp2 | – | casein digestion by the SIP purified fractions at pH 5.5 [1]: The SBTI and chymostatin were able to inhibit the SLP2 protease in the purified sample
2 | Trichoderma reesei pep4 | – | casein digestion by the SIP purified fractions at pH 5.5 (pepstatin A [2]): a large portion of the SIP protease activity was inhibited by pepstatin A
3 | B1 | – | casein digestion by the SIP purified fractions at pH 5.5 (LIP peptide): inhibited the protease activity slightly less compared to SIP inhibitor
4 | B2 | a large portion of the SIP protease activity was inhibited by pepstatin A | –
5 | B3 | a large portion of the SIP protease activity was inhibited by pepstatin A | –
6 | B4 | a large portion of the SIP protease activity was inhibited by pepstatin A | –
